The values that follow come from paper PMC13161223, “Molecular anatomy of PLK1 master docking motifs” (Nature Communications, 2026).

For test [1], the target named is Biotin-conjugated ^MBPPBD (immobilised ligand of BLI) (human) (UniProt P53350). Description: BLI; biotin-conjugated ^MBPPBD immobilised on streptavidin sensors, CENP-U variants as analyte; 25 °C, 20 mM HEPES pH 7.5, 2.5% glycerol, 300 mM NaCl, 0.1 mM TCEP, 0.3 g/L BSA, 0.05% Tween20; KD from koff/kon of the global fit. In general terms: Biolayer interferometry detects binding as a change in optical thickness at a sensor tip.
Chain of Biotin-conjugated ^MBPPBD (immobilised ligand of BLI) (human) (P53350 345-603): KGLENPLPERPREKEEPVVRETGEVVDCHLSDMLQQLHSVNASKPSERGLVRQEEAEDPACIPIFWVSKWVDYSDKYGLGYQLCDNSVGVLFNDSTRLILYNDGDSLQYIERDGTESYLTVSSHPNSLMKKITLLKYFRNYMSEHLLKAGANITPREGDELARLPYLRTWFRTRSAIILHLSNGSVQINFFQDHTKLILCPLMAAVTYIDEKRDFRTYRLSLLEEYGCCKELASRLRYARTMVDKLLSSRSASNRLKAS

Test [2] deals with singly phosphorylated pT98 peptide of CENP-U (ITC) (human). Description: ITC; phosphorylated CENP-U construct in the cell, ^MBPPBD in the syringe; 25 °C, 20 mM Hepes pH 7.5, 300 mM NaCl, 1 mM TCEP, 1% glycerol; one set of sites model. A general note: ITC needs no label: the signal is the heat of the interaction.
In test [3] the target is T1, Biotin-conjugated ^MBPPBD (immobilised ligand of BLI) (human, UniProt P53350 345-603, biotin (Gly-Gly-Gly-Gly-Biotin conjugated to the C-terminal PLPETG peptide by sortase A)).
T1 construct: PLK1, human, residues 345-603 (Polo-box domain construct); As m1 with a C-terminal PLPETG peptide used for biotin labelling; held on streptavidin sensors; also called immobilized PBD; source: E. coli BL21 (DE3), purified (HisTALON, SEC), biotin-labelled with sortase A; not shown: MBP, N-terminal, kept; PLPETG peptide conjugated with Gly-Gly-Gly-Gly-Biotin, C-terminal, kept
T1 sequence (P53350 345-603): as above
Description: BLI; biotin-conjugated ^MBPPBD immobilised on streptavidin sensors, CENP-U variants as analyte; 25 °C, 20 mM HEPES pH 7.5, 2.5% glycerol, 300 mM NaCl, 0.1 mM TCEP, 0.3 g/L BSA, 0.05% Tween20; KD from koff/kon of the global fit. Conditions: both partners purified.

Test [4] has as its target T2, ^MBPPBD (6xHis-MBP-TEV-PLK1^345-603) (human, UniProt P53350 345-603).
T2 construct: PLK1, human, residues 345-603 (Polo-box domain construct); The plasmids paragraph speaks of expression in insect cells, the purification paragraph of E. coli BL21 (DE3); TEV site between MBP and PLK1; source: E. coli BL21 (DE3), purified (HisTALON, SEC); not shown: MBP, N-terminal, kept
Description: SEC; analytical SEC, Superdex 200 5/150, 20 mM Bis-tris/HCl pH 6.5, 250 mM NaCl, 5% glycerol, 1 mM TCEP, 4 °C; PBD added 2:1 to the CENP-U variant (10 µM ^MBPPBD and 5 µM ^MBPCENP-U^58-114 in Fig. 1C). The note with it: both partners purified. (In general: In gel filtration, larger molecules generally elute earlier.)

The target in test [5] is T2, ^MBPPBD (6xHis-MBP-TEV-PLK1^345-603). Description: ITC; phosphorylated CENP-U construct in the cell, ^MBPPBD in the syringe; 25 °C, 20 mM Hepes pH 7.5, 300 mM NaCl, 1 mM TCEP, 1% glycerol; one set of sites model. The note with it: both partners purified.
For test [6], the target named is T3, ^6HisPLK1^FL (6xHis-TEV-PLK1, full length) (human, UniProt P53350 1-603).
T3 construct: PLK1, human, 603 residues, full length; also called full length PLK1; source: insect cells (plasmid from a previous study), purified (HisTALON, SEC); not shown: 6xHis, N-terminal, kept
T3 sequence (P53350 whole entry): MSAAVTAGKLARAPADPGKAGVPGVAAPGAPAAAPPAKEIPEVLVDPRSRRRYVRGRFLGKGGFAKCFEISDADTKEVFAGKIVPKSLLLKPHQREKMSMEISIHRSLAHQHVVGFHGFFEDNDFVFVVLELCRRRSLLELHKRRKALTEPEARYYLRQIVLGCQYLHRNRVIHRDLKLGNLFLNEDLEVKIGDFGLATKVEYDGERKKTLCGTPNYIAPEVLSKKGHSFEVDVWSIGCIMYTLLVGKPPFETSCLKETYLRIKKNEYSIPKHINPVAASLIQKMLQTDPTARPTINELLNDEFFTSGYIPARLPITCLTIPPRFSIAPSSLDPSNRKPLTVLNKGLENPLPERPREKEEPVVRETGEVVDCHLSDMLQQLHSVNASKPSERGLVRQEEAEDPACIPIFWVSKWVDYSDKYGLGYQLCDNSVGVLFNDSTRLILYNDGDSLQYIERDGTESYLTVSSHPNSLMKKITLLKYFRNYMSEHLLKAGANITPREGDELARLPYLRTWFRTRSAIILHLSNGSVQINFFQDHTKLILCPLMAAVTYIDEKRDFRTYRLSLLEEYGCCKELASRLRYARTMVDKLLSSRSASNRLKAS
Description: BLI; biotin-conjugated phosphorylated ^MBPCENP-U^58-114 immobilised on streptavidin sensors, ^MBPPBD or ^6HisPLK1^FL as analyte; 25 °C, 20 mM HEPES pH 7.5, 2.5% glycerol, 300 mM NaCl, 0.1 mM TCEP, 0.3 g/L BSA, 0.05% Tween20; one site for pT78, two sites (KD1, KD2) for pT98 and pT78/pT98. The note with it: both partners purified.

Test [7] has as its target T2, ^MBPPBD (6xHis-MBP-TEV-PLK1^345-603). The test is described as above. Conditions: both partners purified.

Non-standard residues stand in square brackets, D forms with d. No end group written: not given here. pT = C[C@@H](OP(=O)(O)O)[C@H](N)C(=O)O; MBP = maltose-binding protein

T2 sequence (P53350 345-603): as the sequence (P53350 345-603) above

What is called Kd is the constant that tells how readily two partners part at equilibrium. High values mean a looser complex, low ones a tighter complex. For orientation: koff means the rate constant with which the complex falls apart. Read a high koff as a short-lived complex. Broadly, the kon is a measure of how fast the partners come together. In the case of “^MBPCENP-U^84-114/pT98 (from UniProt Q71F23 84-114) (domain or fragment)”, in test [1], the Kd came out at 400 nM, the koff turned out to be 0.0028 s⁻¹ and the kon worked out at 7100 M⁻¹ s⁻¹.

In test [2], “^MBPPBD (6xHis-MBP-TEV-PLK1^345-603) (from UniProt P53350 345-603) (domain or fragment)” yielded a Kd of 380 nM.

B1: ^MBPCENP-U^58-83 (6xHis-MBP-TEV-CENP-U^58-83), unphosphorylated (domain or fragment, human, UniProt Q71F23 58-83, looked up)
chain: {6xHis-MBP-TEV}-LGENEKDEETYETFDPPLHSTAIYAD
notes: CENP-U (PBIP1), human, residues 58-83 (Motif 1); also called Motif 1; unphosphorylated Motif 1; source: E. coli BL21 (DE3), purified (HisTALON, Resource Q, SEC); not shown: MBP, N-terminal, kept
In test [3], B1 registered a Kd of 10000 nM, a koff of 0.00028 s⁻¹ and a kon of 28 M⁻¹ s⁻¹.

B2: ^MBPCENP-U^58-83/Y68A/F71A/pT78 (domain or fragment, human, UniProt Q71F23 58-83, looked up)
chain: LGENEKDEETAETADPPLHS[pT]AIYAD
modifications: also: N-terminal MBP fusion protein
notes: CENP-U (PBIP1), human, residues 58-83 (Motif 1); source: E. coli BL21 (DE3), purified; not shown: MBP, N-terminal, kept
In test [3], B2 registered a Kd of 230 nM, a koff of 0.011 s⁻¹ and a kon of 47000 M⁻¹ s⁻¹.

B3: ^MBPCENP-U^58-83/F71A/pT78 (domain or fragment, human, UniProt Q71F23 58-83, looked up)
chain: LGENEKDEETYETADPPLHS[pT]AIYAD
modifications: also: N-terminal MBP fusion protein
notes: as for B2
Take B3: in test [3], the Kd stood at 88 nM, the koff stood at 0.0077 s⁻¹ and the kon turned out to be 87000 M⁻¹ s⁻¹.

B4: ^MBPCENP-U^84-114 F87A, phosphorylated with CDK1 (domain or fragment, human, UniProt Q71F23 84-114, looked up)
chain: EEEASKHCGLSLSS[pT]PPGKEAKRSSDTSGNE
modifications: also: N-terminal MBP fusion protein
notes: also called F87 to alanine mutant of Motif 2; source: E. coli BL21 (DE3), purified; phosphorylated in vitro with CDK1; not shown: MBP, N-terminal, kept
In the case of B4, the binding result in test [4] is reported as “binds”.

Consider LGENEKDEETYETFDPPLHS[pT]AIYAD (domain or fragment) [singly phosphorylated pT78 peptide of CENP-U (ITC)], for which the Kd in test [5] is roughly 1.9 nM.

B5: ^MBPCENP-U^58-83/pT78 (domain or fragment, human, UniProt Q71F23 58-83, looked up)
chain: LGENEKDEETYETFDPPLHS[pT]AIYAD
modifications: also: N-terminal MBP fusion protein
notes: CENP-U (PBIP1), human, residues 58-83 (Motif 1); also called PLK1-phosphorylated ^MBPCENP-U^58-83; phosphorylated Motif 1; source: E. coli BL21 (DE3), purified; not shown: MBP, N-terminal, kept
In test [3], B5 registered a Kd of 2.5 nM, a koff of 0.00034 s⁻¹ and a kon of 140000 M⁻¹ s⁻¹.

B6: biotin-conjugated ^MBPCENP-U^58-114/pT78 (immobilised ligand of BLI) (domain or fragment, human, UniProt Q71F23 58-114, looked up)
chain: LGENEKDEETYETFDPPLHS[pT]AIYADEEEFSKHCGLSLSSTPPGKEAKRSSDTSGNE
modifications: not fully specified (N-terminus); also: N-terminal MBP fusion protein, C-terminal PLPETG tag ligated by sortase A to Gly4-biotin
notes: source: E. coli BL21 (DE3), purified; phosphorylated in vitro with PLK1; biotin-labelled with sortase A; not shown: MBP, N-terminal, kept; PLPETG peptide conjugated with Gly-Gly-Gly-Gly-Biotin, C-terminal, kept
In test [6], B6 displayed a Kd of 22 nM, a koff of 0.0033 s⁻¹ and a kon of 150000 M⁻¹ s⁻¹. In test [7], this molecule registered a Kd of 1.9 nM, a koff of 0.00052 s⁻¹ and a kon of 280000 M⁻¹ s⁻¹.

B7: ^MBPCENP-U^58-114/pT78/F87A/T98V (domain or fragment, human, UniProt Q71F23 58-114, looked up)
chain: LGENEKDEETYETFDPPLHS[pT]AIYADEEEASKHCGLSLSSVPPGKEAKRSSDTSGNE
modifications: also: N-terminal MBP fusion protein
notes: source: E. coli BL21 (DE3), purified; phosphorylated in vitro with only PLK1; not shown: MBP, N-terminal, kept
In test [3], B7 had a Kd of 7.2 nM, a koff of 0.001 s⁻¹ and a kon of 140000 M⁻¹ s⁻¹.

B8: ^MBPCENP-U^58-114 (6xHis-MBP-TEV-CENP-U^58-114), unphosphorylated (domain or fragment, human, UniProt Q71F23 58-114, looked up)
chain: {6xHis-MBP-TEV}-LGENEKDEETYETFDPPLHSTAIYADEEEFSKHCGLSLSSTPPGKEAKRSSDTSGNE
notes: The plasmids paragraph speaks of expression in insect cells, the purification paragraph of E. coli; source: E. coli BL21 (DE3), purified (HisTALON, Resource Q, SEC); not shown: MBP, N-terminal, kept
For B8, in test [4], the binding result is reported as “binds”.
